B1: Kv7.3 CaM-binding site (construct of the unpublished KD not stated) (domain or fragment)
chain: not shown
B2: Kv7.2 CaM-binding site (construct of the unpublished KD not stated) (domain or fragment)
chain: not shown
notes: the construct may be that of m1

Target: T1, Ca2+-calmodulin (of the unpublished KD) ( (rat cDNA cloned), UniProt P0DP29 1-149)
T1 construct: also called Ca2+-CaM
Experiment: not stated; unpublished ('A.A. in preparation'); affinity of the Kv7 CaM-binding site for Ca2+-CaM

Row | Binder | Kd
1 | B1 | ~25 nM
2 | B2 | ~25 nM

— paper PMC3182250 (PLoS ONE, 2011)
